# Values of other authors as cited in publication PMC6272133.
# Target: LLT1 (Homo sapiens) (UniProt Q9UHP7)
# Assay: SPR
# Chain of UniProt Q9UHP7 (Q9UHP7 60-191): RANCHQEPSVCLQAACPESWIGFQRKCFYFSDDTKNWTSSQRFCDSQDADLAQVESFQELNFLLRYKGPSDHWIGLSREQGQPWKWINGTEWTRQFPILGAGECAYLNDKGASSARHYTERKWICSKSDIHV
substance,measurement,value
NKRP1A ECD (from UniProt Q12918),Kd,48 µM
